B1: PLAGL1 (parent)
chain: LELGSTEVLLDHLKAHAEEKPPSG
B2: TFE3 (parent)
chain: FPSDHLGDLGDPFHLGLEDILMEE

Variants of: B1
Assay: protein stability index of a GFP-peptide fusion (GPS, HEK-293T) (PSI 1-6); higher = more stable
Conditions: c terminus: a fixed tail appended
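Note: lentivirally expressed fusions sorted by FACS into six bins by GFP to DsRed ratio, PSI derived from sequencing read proportions per bin multiplied by bin number.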

Protein stability index: each site, then its substitutions
L9: D 4.91; A 5.08; W 4.11; E 5.92; Y 4.83; P 5.57; H 5.15; M 4.77; S 5.72; K 4.99; C 5.04; T 5.58; N 5.71; F 4.79; R 4.63; I 4.45; Q 5.84; V 4.97; G 5.6
E7: M 3.54; R 4.81; T 4.24; P 5.07; F 3.86; D 5.27; V 3.82; A 4.78; G 4.89; N 4.67; Y 3.77; S 4.81; I 3.69; L 3.41; Q 4.89; W 3.04; K 3.85; H 4.39; C 4.27
G4: D 5.28; K 4.3; N 4.54; P 4.77; Y 2.19; W 2.2; T 3.95; V 3.28; H 3.83; M 2.25; C 3.54; Q 3.68; L 2.77; S 4.14; R 3.94; E 3.85; F 2.59; I 2.58; A 2.89
L10: V 5.1; I 4.07; S 5.42; N 5.74; T 5.87; P 5.36; G 5.66; K 5.83; Q 5.41; Y 5.26; W 4.81; F 5.3; M 5.42; A 5.72; E 4.86; C 5.35; H 5.35; D 5.35; R 5.62
D11: W 3.03; C 2.36; E 3.56; V 1.86; H 3.79; I 1.25; L 1.79; R 3.46; Y 2.7; P 5.43; A 4; S 3.54; G 3.56; F 1.77; M 2.2; K 3.65; N 4.29; Q 2.17; T 3.07
S5: D 4.84; M 2.3; G 4.56; E 3.8; Q 2.92; P 4.79; H 4.84; C 4.51; R 3.5; Y 3.33; F 3.09; V 3.79; L 2.53; N 5.08; W 2.97; I 4.15; T 4.44; A 3.22; K 3.85
K14: E 5.5; N 5.04; I 4.55; T 5.1; P 5.32; F 3.5; C 4.69; L 4.61; H 5.15; M 3.6; R 3.5; V 4.63; S 5.04; G 5.39; D 5.56; W 4.1; A 4.93; Q 4.59
H12: C 4.32; T 4.62; N 5.15; L 2.21; K 3.99; E 5.54; S 4.9; Y 2.44; A 3.98; M 3.06; V 3.26; P 5.48; Q 4.82; W 3; F 2.71; G 5.16; R 4.37; I 3.02; D 5.18
L13: S 5.6; W 3.78; A 5.38; F 4.22; T 5.46; Q 5.76; H 5.61; M 5.09; E 5.3; Y 3.9; N 5.64; I 4.97; D 5.87; V 4.36; C 4.84; R 5.6; K 5.68; G 5.46; P 5.35
L3: P 5.88; W 4.49; H 5.4; M 4.09; A 5.17; D 5.79; I 4.74; Q 5.55; N 5.67; K 5.19; T 5.18; G 5.74; Y 5.45; R 5.54; E 5.8; S 5.72; C 5.21; F 4.33; V 4.9
E2: D 4.03; P 4.67; Q 4.19; C 3.84; L 2.27; M 2.81; G 4.81; Y 2.34; W 2; K 4.23; F 2.15; V 2.49; I 3.18; N 4.69; A 3.53; S 3.37; H 4.03; R 3.4; T 4.16
V8: C 4.41; E 5.29; H 4.55; F 3.85; M 3.54; Q 4.75; A 4.64; K 4.51; D 5.01; W 3.79; L 3.21; S 4.87; N 4.85; Y 4.62; T 5; P 4.84; R 4.96; I 3.91
L1: A 5.43; S 4.98; W 4.28; M 4.59; G 4.44; Q 4.99; Y 4.38; R 5.29; D 5.24; V 4.91; E 5.02; N 5.35; T 4.91; H 5.36; C 4.61; P 5.23; I 3.55; K 5.53; F 4.48
T6: S 4.71; G 4.75; L 2.84; V 4.24; Y 3.76; K 5.38; A 3.58; N 4.76; M 3.74; W 2.89; P 4.25; I 3.4; F 3.62; E 5.49; C 4.38; R 4.57; H 5.42; Q 5.22

Variants of: B2
Assay: as above
Conditions: c terminus: a fixed tail appended

Protein stability index of substitutions, site by site:
L21: I 3.32; W 3.14; H 4.08; P 4.18; T 3.93; N 3.85; Y 3.31; G 3.88; V 3.4; R 3.78; S 3.69; M 3.38; Q 3.94; K 4.06
E24: M 2.62; F 1.92; G 2.91; R 2.87; L 1.97; P 2.77; A 2.64; V 1.59; H 2.75; W 1.8; I 1.97; K 2.59; S 2.91; T 2.95; D 3.54; Q 2.96; N 3.49; C 2.96; Y 2.35
M22: R 3.33; K 3.98; E 4.79; G 3.64; I 3.35; F 3.14; L 3.24; N 4.04; A 3.31; S 3.87; C 3.53; Y 3.13; P 3.71; T 3.72; W 3.16; Q 3.75; D 4.26; V 3.08; H 3.7
E23: M 2.33; P 2.76; F 2.42; Q 3.26; A 2.45; T 3.24; R 2.95; K 3.34; H 2.86; G 2.47; C 2.03; D 2.86; Y 2.3; W 2.56; L 2.44; S 2.81; I 2.62; V 3.85; N 2.65

Reference: the supplement of paper PMC10567573
